This note sets out measurements from the supplement of paper PMC7877785.

The data set can be described thus: self-splicing fitness, log relative to wild type (ln ratio); higher = more splicing; Tetrahymena group I intron in knt gene, E. coli kanamycin selection, DiMSum; sequences stand for … in CUCUCU…GGAGGGAAAAGUUAUCAGGCAUGCACCUGGUAGCUAGUCUUUAAACCAAUAGAUUGCAUCGGUUUAAAAGGCAAGACCGUCAAAUUGCGGGAAAGGGGUCAACAGCCGUUCAGUACCAAGUCUCAGGGGAAACUUUGAGAUGGCCUUGCAAAGGGUAUGGUAAUAAGCUGACGGACAUGGUCCUAACCACGCAGCCAAGUCCUAAGUCAACAGAUCUUCUGUUGAUAUGGAUGCAGUUCACAGACUAAAUGUCGGUCGGGGAAGAUGUAUUCUUCUCAUAAGAUAUAGUCGGACCUCUCCUUAAUGGGAGCUAGCGGAUGAAGUGAUGCAACACUGGAGCCGCUGGGAACUAAUUUGUAUGCGAAAGUAUAUUGAUUAGUUUUGGAGUACUCGUGGUCG
The method, boiled down:
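The eight P1ex-region nucleotides of an intron in the knt kanamycin-resistance gene on pET-22b(+) were all randomised and the library put into E. coli BL21(DE3). Six replicate transformations were grown overnight at 37°C or 30°C on LB agar with or without 25 μg/mL kanamycin, together with 100 μg/mL carbenicillin, 50 μM IPTG and 0.2% rhamnose. Colonies were pooled and amplicon-sequenced on an Illumina HiSeq 2500. Fitness from DiMSum is the error-weighted combination of wild-type-normalised replicate fold changes, kanamycin over none.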

± gives the uncertainty stated by the source.

For the sequence GCCAAGCAAUAUUACGACUA, the “self-splicing fitness (ln)” value reads like this: (30 °C) -1.82 ± 0.17; (37 °C) -1.77 ± 0.16.

In the case of GCCAAGCAAUAUUACGAGAC, the “self-splicing fitness (ln)” value (30 °C) was -2.73 ± 0.18 and the “self-splicing fitness (ln)” value (37 °C) was -0.746 ± 0.12.

For GCCAAGCAAUAUUACGAGGC, the “self-splicing fitness (ln)” value (30 °C) is -2.66 ± 0.16 and the “self-splicing fitness (ln)” value (37 °C) is -1.93 ± 0.21.

In the case of GCCAAGCAAUAUUACGAUGC, the “self-splicing fitness (ln)” value (30 °C) is -1.7 ± 0.09 and the “self-splicing fitness (ln)” value (37 °C) was -0.188 ± 0.11.

Take GCCAAGCAAUAUUACGCAAU: the “self-splicing fitness (ln)” value (30 °C) is -1.35 ± 0.075 and the “self-splicing fitness (ln)” value (37 °C) is -0.812 ± 0.082.

In the case of GCCAAGCAAUAUUACGCCGA, the “self-splicing fitness (ln)” value was -1.64 ± 0.15 (30 °C) and -0.102 ± 0.11 (37 °C).

With GCCAAGCAAUAUUACGCCGC, the “self-splicing fitness (ln)” value by setting is: (30 °C) -2.92 ± 0.31; (37 °C) -1.02 ± 0.28.

Take GCCAAGCAAUAUUACGCGCC: the “self-splicing fitness (ln)” value is -3.75 ± 0.27 (30 °C) and -2.56 ± 0.32 (37 °C).

Take GCCAAGCAAUAUUACGGACA: the “self-splicing fitness (ln)” value by setting is: (30 °C) -1.12 ± 0.11; (37 °C) 0.31 ± 0.093.

For GCCAAGCAAUAUUACGGCAA, the “self-splicing fitness (ln)” value (30 °C) is -2.23 ± 0.17 and the “self-splicing fitness (ln)” value (37 °C) is -1.06 ± 0.15.

Take GCCAAGCAAUAUUACGGCCC: the “self-splicing fitness (ln)” value reads like this: (30 °C) -2.13 ± 0.2; (37 °C) -1.57 ± 0.22.

For the sequence GCCAAGCAAUAUUACGGCUU, the “self-splicing fitness (ln)” value runs as follows: (30 °C) -5.36 ± 0.34; (37 °C) -3.31 ± 0.19.

For the sequence GCCAAGCAAUAUUACGGGUC, the “self-splicing fitness (ln)” value is, setting by setting: (30 °C) -3.34 ± 0.18; (37 °C) -2.8 ± 0.27.

On to GCCAAGCAAUAUUACGGUGC, for which the “self-splicing fitness (ln)” value (30 °C) was -3.11 ± 0.24 and the “self-splicing fitness (ln)” value (37 °C) was -2.14 ± 0.21.

On to GCCAAGCAAUAUUACGGUUU, for which the “self-splicing fitness (ln)” value by setting is: (30 °C) -1.08 ± 0.047; (37 °C) -0.943 ± 0.07.

Regarding GCCAAGCAAUAUUACGUAUU, the “self-splicing fitness (ln)” value is -3.29 ± 0.16 (30 °C) and -2.28 ± 0.14 (37 °C).

Regarding GCCAAGCAAUAUUACGUCGU, the “self-splicing fitness (ln)” value runs as follows: (30 °C) -0.691 ± 0.058; (37 °C) -0.359 ± 0.066.

Take GCCAAGCAAUAUUACGUCUU: the “self-splicing fitness (ln)” value was -3.28 ± 0.2 (30 °C) and -2.38 ± 0.16 (37 °C).

In the case of GCCAAGCAAUAUUACGUGAG, the “self-splicing fitness (ln)” value by setting is: (30 °C) -1.17 ± 0.071; (37 °C) -0.535 ± 0.084.

Take GCCAAGCAAUAUUACGUGCU: the “self-splicing fitness (ln)” value was -3.04 ± 0.11 (30 °C) and -1.56 ± 0.092 (37 °C).

With GCCAAGCAAUAUUACGUGUC, the “self-splicing fitness (ln)” value reads like this: (30 °C) -1.62 ± 0.06; (37 °C) -0.848 ± 0.075.

Regarding GCCAAGCAAUAUUACGUUUG, the “self-splicing fitness (ln)” value runs as follows: (30 °C) -3.38 ± 0.16; (37 °C) -2.61 ± 0.21.

Consider GCCCAGCAAUAUUACGAAAA, for which the “self-splicing fitness (ln)” value reads like this: (30 °C) -1.7 ± 0.1; (37 °C) -1.87 ± 0.12.

On to GCCCAGCAAUAUUACGAAAC, for which the “self-splicing fitness (ln)” value is -1.34 ± 0.058 (30 °C) and -0.851 ± 0.078 (37 °C).

GCCCAGCAAUAUUACGAACU: the “self-splicing fitness (ln)” value is -1.26 ± 0.14 (30 °C) and -1 ± 0.14 (37 °C).

On to GCCCAGCAAUAUUACGAAUA, for which the “self-splicing fitness (ln)” value by setting is: (30 °C) -1.62 ± 0.1; (37 °C) -1.19 ± 0.12.

For the sequence GCCCAGCAAUAUUACGAAUC, the “self-splicing fitness (ln)” value reads like this: (30 °C) -0.771 ± 0.083; (37 °C) -0.457 ± 0.086.

As for GCCCAGCAAUAUUACGACCA, the “self-splicing fitness (ln)” value is, setting by setting: (30 °C) -1.44 ± 0.19; (37 °C) -0.385 ± 0.23.

GCCCAGCAAUAUUACGACUA: the “self-splicing fitness (ln)” value reads like this: (30 °C) -1.54 ± 0.1; (37 °C) -0.508 ± 0.11.

Take GCCCAGCAAUAUUACGACUU: the “self-splicing fitness (ln)” value was -1.45 ± 0.095 (30 °C) and -0.824 ± 0.1 (37 °C).

GCCCAGCAAUAUUACGAGGG: the “self-splicing fitness (ln)” value (30 °C) is -4 ± 0.18 and the “self-splicing fitness (ln)” value (37 °C) was -2.74 ± 0.21.

Regarding GCCCAGCAAUAUUACGAGUC, the “self-splicing fitness (ln)” value was -0.477 ± 0.039 (30 °C) and -0.126 ± 0.059 (37 °C).

GCCCAGCAAUAUUACGAUAU: the “self-splicing fitness (ln)” value by setting is: (30 °C) -1.54 ± 0.077; (37 °C) -1.31 ± 0.1.

Consider GCCCAGCAAUAUUACGCGGC, for which the “self-splicing fitness (ln)” value (30 °C) is -4.94 ± 0.39 and the “self-splicing fitness (ln)” value (37 °C) is -2.51 ± 0.24.

Consider GCCCAGCAAUAUUACGCGUA, for which the “self-splicing fitness (ln)” value by setting is: (30 °C) -0.753 ± 0.061; (37 °C) -0.155 ± 0.064.

In the case of GCCCAGCAAUAUUACGGAUG, the “self-splicing fitness (ln)” value reads like this: (30 °C) -2.15 ± 0.075; (37 °C) -1.49 ± 0.092.

For GCCCAGCAAUAUUACGGCAC, the “self-splicing fitness (ln)” value is, setting by setting: (30 °C) -1.45 ± 0.067; (37 °C) -0.0437 ± 0.094.

As to GCCCAGCAAUAUUACGGCGG, the “self-splicing fitness (ln)” value was -3.37 ± 0.16 (30 °C) and -1.93 ± 0.17 (37 °C).

In the case of GCCCAGCAAUAUUACGGGCA, the “self-splicing fitness (ln)” value (30 °C) is -2.35 ± 0.2 and the “self-splicing fitness (ln)” value (37 °C) is -2.69 ± 0.21.

GCCCAGCAAUAUUACGGGCU: the “self-splicing fitness (ln)” value was -3.75 ± 0.16 (30 °C) and -2.81 ± 0.15 (37 °C).

Turning to GCCCAGCAAUAUUACGGUAA, the “self-splicing fitness (ln)” value is, setting by setting: (30 °C) -0.279 ± 0.06; (37 °C) 0.44 ± 0.068.

Regarding GCCCAGCAAUAUUACGGUGU, the “self-splicing fitness (ln)” value is, setting by setting: (30 °C) -2.51 ± 0.067; (37 °C) -1.27 ± 0.076.

On to GCCCAGCAAUAUUACGUACC, for which the “self-splicing fitness (ln)” value by setting is: (30 °C) -1.05 ± 0.12; (37 °C) 0.0161 ± 0.17.

In the case of GCCCAGCAAUAUUACGUAGA, the “self-splicing fitness (ln)” value was -0.69 ± 0.052 (30 °C) and 0.0571 ± 0.064 (37 °C).

With GCCCAGCAAUAUUACGUAUU, the “self-splicing fitness (ln)” value by setting is: (30 °C) -2.02 ± 0.066; (37 °C) -0.786 ± 0.074.

Regarding GCCCAGCAAUAUUACGUCCC, the “self-splicing fitness (ln)” value runs as follows: (30 °C) -1.49 ± 0.17; (37 °C) 0.384 ± 0.17.

For GCCCAGCAAUAUUACGUCGC, the “self-splicing fitness (ln)” value is -1.66 ± 0.095 (30 °C) and -0.355 ± 0.092 (37 °C).

For GCCCAGCAAUAUUACGUGAG, the “self-splicing fitness (ln)” value was -0.944 ± 0.043 (30 °C) and -0.161 ± 0.056 (37 °C).

As for GCCCAGCAAUAUUACGUGCA, the “self-splicing fitness (ln)” value was -1.47 ± 0.083 (30 °C) and -0.691 ± 0.083 (37 °C).

For GCCCAGCAAUAUUACGUGCG, the “self-splicing fitness (ln)” value was -3.42 ± 0.21 (30 °C) and -1.71 ± 0.17 (37 °C).

As for GCCGAGCAAUAUUACGAACC, the “self-splicing fitness (ln)” value was -0.807 ± 0.22 (30 °C) and 0.455 ± 0.41 (37 °C).

As to GCCGAGCAAUAUUACGAAUA, the “self-splicing fitness (ln)” value (37 °C) is -1.51 ± 0.47.

With GCCGAGCAAUAUUACGACAC, the “self-splicing fitness (ln)” value (30 °C) was -1.4 ± 0.12 and the “self-splicing fitness (ln)” value (37 °C) was -0.338 ± 0.18.

With GCCGAGCAAUAUUACGACAG, the “self-splicing fitness (ln)” value reads like this: (30 °C) -1.9 ± 0.22; (37 °C) -2.16 ± 0.23.

GCCGAGCAAUAUUACGACCU: the “self-splicing fitness (ln)” value by setting is: (30 °C) -2.33 ± 0.3; (37 °C) -1.54 ± 0.36.

Turning to GCCGAGCAAUAUUACGAGAU, the “self-splicing fitness (ln)” value by setting is: (30 °C) -2.65 ± 0.19; (37 °C) -1.66 ± 0.2.

GCCGAGCAAUAUUACGAUUG: the “self-splicing fitness (ln)” value was -2.48 ± 0.41 (30 °C) and -2.24 ± 0.47 (37 °C).

For the sequence GCCGAGCAAUAUUACGCACC, the “self-splicing fitness (ln)” value by setting is: (30 °C) -1.96 ± 0.23; (37 °C) -0.483 ± 0.21.

As for GCCGAGCAAUAUUACGCCUU, the “self-splicing fitness (ln)” value was -3.44 ± 0.27 (30 °C) and -2 ± 0.36 (37 °C).

On to GCCGAGCAAUAUUACGCGAU, for which the “self-splicing fitness (ln)” value by setting is: (30 °C) -2.66 ± 0.2; (37 °C) -3.09 ± 0.37.
